Each block holds one molecule with its values, some of them ahead of it.
Target: T1, mouse HRt (hairless protein aa 490-1182) (Mus musculus, UniProt Q61645)
T1 construct: HR cDNA corresponding to the C-terminal half of HR protein (aa residues 490 to 1182, hereinafter HRt); expressed in transfected cells; host or cells: Saccharomyces cerevisiae PJ69-2A transformed with BD-HRt plasmid, mated with Y187 carrying the human brain cDNA library in pACT2
T1 sequence (Q61645 490-1182): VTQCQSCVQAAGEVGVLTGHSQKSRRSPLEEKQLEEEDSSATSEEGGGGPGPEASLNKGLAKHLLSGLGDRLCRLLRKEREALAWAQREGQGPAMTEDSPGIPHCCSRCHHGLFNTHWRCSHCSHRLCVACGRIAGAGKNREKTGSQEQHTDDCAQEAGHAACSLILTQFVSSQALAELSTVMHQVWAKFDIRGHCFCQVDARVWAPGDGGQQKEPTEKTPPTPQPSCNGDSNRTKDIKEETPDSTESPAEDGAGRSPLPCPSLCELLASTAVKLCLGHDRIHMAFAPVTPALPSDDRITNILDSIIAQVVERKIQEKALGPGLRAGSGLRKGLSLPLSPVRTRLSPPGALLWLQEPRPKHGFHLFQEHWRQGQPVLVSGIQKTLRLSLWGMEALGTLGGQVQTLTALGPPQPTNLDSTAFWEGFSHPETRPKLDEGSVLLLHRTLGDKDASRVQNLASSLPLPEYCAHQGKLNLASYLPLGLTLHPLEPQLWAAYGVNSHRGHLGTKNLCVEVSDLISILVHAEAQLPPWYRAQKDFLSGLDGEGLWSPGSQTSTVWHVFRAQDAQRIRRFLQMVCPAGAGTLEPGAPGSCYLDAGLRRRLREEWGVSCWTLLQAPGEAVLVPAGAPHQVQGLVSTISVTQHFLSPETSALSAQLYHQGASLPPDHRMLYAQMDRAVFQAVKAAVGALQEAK
Assay: Yeast two-hybrid screen of BD-HRt against human brain cDNA library in AD vector, lacZ coloration on QDO-Xgal plates
Format: cell-based
Details: BD-HRt(mouse) x human brain cDNA library in AD-vector
Source text: The present example provides for Hairless Protein (HR) interacting partners (HR-IP) using the yeast two-hybrid technology. […] Yeast cells expressing BD-HRt are mated with yeast cells pretransformed with human brain cDNA library in the activation domain (AD) vector.
Cloning of HRt into GAL4 binding domain (BD) yeast two-hybrid (Y2H) vector: The HRt insert from pET32a-HRt is excised as an Eco RI-Xho I fragment (there is a unique Xho I site just adjacent to HRt insert) and inserted at the Eco RI-Sal I sites of Y2H-BD vector pGBKT7 (Catalog No. K1612-B; a component of Matchmaker two-hybrid System 3 (Catalog No. K1612-1) BD Biosciences Clontech, Palo Alto, Calif.) to obtain pGBKT7-HRt in which HRt is fused in-frame to GAL 4 DNA BD (this plasmid is also designated BD-HRt).
Pretransformed human brain […] cDNA Library Screen for HRt interaction partners: Pretransformed human brain […] high-complexity GAL4 cDNA library that has already been amplified and introduced into yeast strain Y187 (MATα) is used to screen for HRt interacting proteins. […] The library host strain Y187 provides a third reporter gene (lacZ) for optional quantification of signal strength. The protocol as described in Clontech user manual (PT3183-1) is used. Briefly, the library is mixed with PJ69-2A strain that has been transformed with the BD-HRt plasmid in YPD medium containing adenine hemisulfate (0.004%) and kanamycin (0.005%) and incubated for 20-24 h at 30° C. The next day, the mating mixture is plated on Leu, Trp, His TDO that selects for two-hybrid interactions, and then the positive clones are screened for growth on Leu, Trp, His, Ade QDO, which is a more stringent condition for interaction. Colonies that grew well on QDO are also screened for lacZ expression by streaking on QDO-Xgal plates. Based on a visual assessment of colonies for the intensity of blue color, the clones are classified into high (H), medium (M), low (L) or very low (VL) categories.
The positive clones are expected to contain an AD-IP (interacting partner) that interacts with BD-HRt. To characterize IP, the sequence of IP is determined and matched to the human genome database. For this purpose, total DNA is isolated from the positive clones and PCR amplified with […] AD LD (long distance)-insert screening amplimers (Catalog No.9103-1; BD Biosciences Clontech, PaloAlto, Calif.). Reaction is conducted in 50 μl volume for 35 cycles using the conditions recommended with the Advantage2 PCR kit (Catalog No. K1910-1; BD Biosciences Clontech, PaloAlto, Calif.).

XGAL (rate and intensity of coloration of colonies on Xgal): L (L = Low blue in 5-7 days)
Molecule: Human Thy-1 glycoprotein: human HRt interacting partner, GenBank AF261093, SEQ ID NO:66/67

XGAL (rate and intensity of coloration of colonies on Xgal): L (L = Low blue in 5-7 days)
Molecule: Human genomic region containing hypervariable mini satellites Chromosome 10[10q26.3]: human HRt interacting partner, GenBank AL096810, SEQ ID NO:64/65 (NMKNRMMWRVMTLEKTRVNIIQTHLLCLLLIQMK; listed as Homo sapiens)

XGAL (rate and intensity of coloration of colonies on Xgal): L (L = Low blue in 5-7 days)
Molecule: Human pre-B cell colony enhancing factor (PBEF): human HRt interacting partner, GenBank U02020, SEQ ID NO:55

XGAL (rate and intensity of coloration of colonies on Xgal): H (H = Intense blue within 2-3 days)
B1: Human sequence from clone RP4-753, chromosome 21q: human HRt interacting partner, GenBank AL031676, SEQ ID NO:12/13 (protein, listed as Homo sapiens)
chain: TRSSFRSEATPSEPVLVSVHLSVLPARVQPRGMDRARVAVAAGSLAPPVLPPPIQRLRGCSMFYVFLNEDPSDGSSPIPDSGSPSGPRAAPEHPARLPLT

XGAL (rate and intensity of coloration of colonies on Xgal): H (H = Intense blue within 2-3 days)
B3: Human monocyte antigen CD14: human HRt interacting partner, GenBank M86511, SEQ ID NO:14/15 (protein, listed as Homo sapiens)
chain: KRINLISQTKRPDRNMSLSRACPCWNGLLTTIKNLELLLEIVTDKSQEGSQFVKGFGGIGGILRYRVDFQGMEYQGGDDEFFDLDDY

XGAL (rate and intensity of coloration of colonies on Xgal): M (M = Medium blue in 3-5 days)
B4: Human aldolase A: human HRt interacting partner, GenBank M11560, SEQ ID NO:26/27 (protein, listed as Homo sapiens)
chain: VSKAVEHINKTIAPALVSKKLNVTEQEKIDKLMIEMDGTENKSKFGANAILGVSLAVCKAGAVEKGVPLYRHIADLAGNSEVILPVPAFNVINGGFSCCNKLAMHEVHDPPSRCSKLQGSLRIGTE

XGAL (rate and intensity of coloration of colonies on Xgal): M (M = Medium blue in 3-5 days)
B6: Human CGI-106 protein: human HRt interacting partner, GenBank AF151864, SEQ ID NO:28/29 (protein, listed as Homo sapiens)
chain: DEDTEGFGVPRHDPLPDPLKVPPPLPDPSSICMVDPEMLPPKTARQTENVSRTRKPLARPNSRAAAPKATPVAAAKTKGLAGGDRASRPLSARSEPSEKGGRAPLSRKSSTPKTATRGPSGSASSRPGVSATPPKSPVYLDLAYLPSGSSAHLVDEEFFQRVRALCYVISGQDQRKEEGMRAVLDALLASKQHWDRDLQVTLIPTFDSVAMHTWYAETHAR

Second part, the molecule before the results:

Molecule: HUMFGF1A Human fibroblast growth factor (FGF) receptor-1 mRNA: interacting partner nucleic acid, homology in a 3'-untranslated region, GenBank M34641, SEQ ID NO:92
XGAL (rate and intensity of coloration of colonies on Xgal): VL (VL = Very Low blue in 10 days)

Molecule: Human C11 protein: human HRt interacting partner, GenBank X81625, SEQ ID NO:20/21
XGAL (rate and intensity of coloration of colonies on Xgal): M (M = Medium blue in 3-5 days)

Molecule: Human Sphingolipid activator protein: human HRt interacting partner, GenBank M60255, SEQ ID NO:16/17 (PLPPPCLLPLPRPPLLPRLGRVVPLHPLQTSPVTGDCSRPRPRWMRWWTS; listed as Homo sapiens)
XGAL (rate and intensity of coloration of colonies on Xgal): M (M = Medium blue in 3-5 days)

Molecule: Human ankyrin repeat containing protein ASB-2: human HRt interacting partner, GenBank AF159164, SEQ ID NO:38/39
XGAL (rate and intensity of coloration of colonies on Xgal): M (M = Medium blue in 3-5 days)

Molecule: Human cDNA FLJ20456 fis clone KAT05827: human HRt interacting partner, GenBank AK000463, SEQ ID NO:74/75
XGAL (rate and intensity of coloration of colonies on Xgal): L/VL

Molecule: Human cDNA: FLJ23187 fis, clone: LNG11989: human HRt interacting partner, GenBank AK026840, SEQ ID NO:78/79
XGAL (rate and intensity of coloration of colonies on Xgal): L (L = Low blue in 5-7 days)

Molecule: Human hypothetical protein: human HRt interacting partner, GenBank BC006358, SEQ ID NO:34/35
XGAL (rate and intensity of coloration of colonies on Xgal): M (M = Medium blue in 3-5 days)

Molecule: Human mRNA for C11ORF25 gene: interacting partner nucleic acid, homology in a 3'-untranslated region, GenBank AJ300461, SEQ ID NO:94 (DNA CTATTCGATGATGAAGATACCCCACCAAACCCA; listed as DNA, chemistry not fully specified; the letters are possibly those of the target site)
XGAL (rate and intensity of coloration of colonies on Xgal): VL (VL = Very Low blue in 10 days)

Molecule: Human synuclein-beta: human HRt interacting partner, GenBank BC002902, SEQ ID NO:18/19 (FCPTPTATPCRNSPGVTSGGPRPCWARLMEVPQERTRTAWCSTPRLPSRSRSSASVMM; listed as Homo sapiens)
XGAL (rate and intensity of coloration of colonies on Xgal): M (M = Medium blue in 3-5 days)

Molecule: Human tyrosine phosphatase type 1VA, member 2: human HRt interacting partner, GenBank U14603, SEQ ID NO:51/52
XGAL (rate and intensity of coloration of colonies on Xgal): L (L = Low blue in 5-7 days)

Molecule: Human ubiquitin: human HRt interacting partner, GenBank AR075562, SEQ ID NO:70/71 (EKFAPKKQGDGGKDLPTEAKKRAAEFCRGALC; listed as Homo sapiens)
XGAL (rate and intensity of coloration of colonies on Xgal): L/VL

Molecule: Human ubiquitous receptor UR: human HRt interacting partner, GenBank E11456, SEQ ID NO:1/2
XGAL (rate and intensity of coloration of colonies on Xgal): H/M

B2: Human small intestine cDNA to mRNA clone HSI10987: human HRt interacting partner, GenBank AK026339, SEQ ID NO:24/25 (protein, listed as Homo sapiens)
chain: CPGRSQGPHCWDAGCSGAPQAQVPSVFSFDFAAVLVLLLYPQELTWTQILGPPWSASSSAFGSGKNSSRTFYSQRQSLSFLCPICISSRRDPP
XGAL (rate and intensity of coloration of colonies on Xgal): M (M = Medium blue in 3-5 days)

B5: Human vesicle-associated membrane protein 2: human HRt interacting partner, GenBank BC002737, SEQ ID NO:22/23 (protein, listed as Homo sapiens)
chain: QGEGKGDGTGSYREGQGPRQQGGHQEAAAAATVCVASLPPPQHPRQLGLAPLPSLHCTLSLKINFQPCLLSTWWVVGMQFGICSTPST
XGAL (rate and intensity of coloration of colonies on Xgal): M (M = Medium blue in 3-5 days)

Source: patent US20040086945A1, “Hairless protein-interacting partner complexes and methods thereto” (The Procter & Gamble Company, priority 2002, published 2004)
